According to article doi:10.1101/2021.07.22.453368:

Legend:
[1] = target: junctional adhesion molecule-A (human) (UniProt Q9Y624); experiment: flow cytometry on cells
[2] = target: human Nogo 66 receptor 1 (human) (UniProt Q9BZR6); experiment: flow cytometry on cells
Chain of UniProt Q9BZR6 (Q9BZR6 27-447): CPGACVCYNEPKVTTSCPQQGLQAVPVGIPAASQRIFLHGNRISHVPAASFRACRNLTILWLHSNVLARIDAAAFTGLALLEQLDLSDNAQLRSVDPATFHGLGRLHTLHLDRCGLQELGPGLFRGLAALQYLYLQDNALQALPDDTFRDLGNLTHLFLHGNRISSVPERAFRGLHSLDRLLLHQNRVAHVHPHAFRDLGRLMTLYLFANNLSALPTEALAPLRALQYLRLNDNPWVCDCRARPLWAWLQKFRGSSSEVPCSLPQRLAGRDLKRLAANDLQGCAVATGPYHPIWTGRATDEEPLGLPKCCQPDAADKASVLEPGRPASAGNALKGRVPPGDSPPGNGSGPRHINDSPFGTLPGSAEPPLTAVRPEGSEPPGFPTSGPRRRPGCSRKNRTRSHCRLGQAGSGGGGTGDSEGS

Chain of UniProt Q9Y624 (Q9Y624 28-299): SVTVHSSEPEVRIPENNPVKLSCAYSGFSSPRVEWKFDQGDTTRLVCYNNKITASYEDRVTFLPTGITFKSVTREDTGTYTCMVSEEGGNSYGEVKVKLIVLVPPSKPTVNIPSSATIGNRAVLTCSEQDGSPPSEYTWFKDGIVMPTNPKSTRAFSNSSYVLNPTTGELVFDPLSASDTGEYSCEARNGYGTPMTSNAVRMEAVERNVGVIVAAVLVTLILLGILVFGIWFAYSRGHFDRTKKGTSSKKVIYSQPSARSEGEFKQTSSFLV

Substance: reovirus T3SA- virions (complex)
- percent of receptor-expressing cells bound by reovirus [1]: > 50%
- percent of receptor-expressing cells bound by reovirus [2]: > 50%
